Assay results as given in paper PMC2581436, “Role of Amphipathic Helix of a Herpesviral Protein in Membrane Deformation and T Cell Receptor Downregulation” (PLoS Pathogens, 2008).

Target: the molecule itself
Test: native gel or EMSA; Blue Native PAGE (10% native gel) of whole-cell lysates of 293T cells solubilized with 2.5% Triton X-100; GFP fusions detected by anti-GFP immunoblot; markers aldolase ~160 kDa and BSA 66/132 kDa

B1: GFP-Tip^211-256 (domain or fragment)
chain: ANERNIVKDLKRLENKINVIICLVVVILAVLLLVTVLSILHIGMKS
notes: source: 293T, transiently expressing, detergent-solubilized lysate
stoichiometry N: ~4
